The series deals with the molecule itself. The series is described as follows: analytical ultracentrifugation (sedimentation velocity) in buffer with 0.4-0.6 M GuHCl; self-association of the enzyme. On the procedure:
Analytical ultracentrifugation. Velocity sedimentation experiments were performed using an XL-A analytical ultracentrifuge (Beckman Instruments, Palo Alto, Calif.) with an An60-Ti rotor. 11β-HSD1 in 50 mM Tris-HCl, pH 8.0: 1 mM TCEP and increasing concentrations of GuHCl (0-2.0 M) was centrifuged at 40,000 rpm. Solutions containing the same components except the protein were used as references. Scans were collected every 5 min at 280 nm absorption wavelength and the radial distance of the sedimenting boundary r was determined. The sedimentation coefficient was calculated by the gradient of the plot of ln(r) vs ω²t, where ω was the angular velocity and t was the time.
The association state of 11β-HSD1 was investigated by analytical ultracentrifugation. […] When incubated in buffer containing 0.4 M GuHCl, the guinea pig enzyme appeared to be constituted by two major populations (FIG. 5B). This behavior was even more pronounced at 0.6 M GuHCl (FIG. 5C). A molecular weight of approximately 60 kDa can be derived from the sedimentation coefficient of the larger peak, corresponding to a dimeric 11β-HSD1 population, while the second peak may originate from a smaller portion of tetrameric enzyme.

B1: recombinant guinea pig 11β-hydroxysteroid dehydrogenase type 1 (11β-HSD1), catalytic domain with His6 tag (enzyme)
chain: MGSSHHHHHHSSGLVPRGSHMNEKFRPEMLQGKKVIVTGASKGIGREIAYHLAKMGAHVVVTARSKEALQKVVARCLELGAASAHYIAGSMEDMTFAEEFVAEAGNLMGGLDMLILNHVLYNRLTFFHGEIDNVRKSMEVNFHSFVVLSVAAMPMLMQSQGSIAVVSSVAGKITYPLIAPYSASKFALDGFFSTLRSEFLVNKVNVSITLCILGLIDTETAIKATSGIYLGPASPKEECALEIIKGTALRQDEMYYVGSRWVPYLLGNPGRKIMEFLSAAEYNWDNVLSNEKLYGRWA
notes: also called guinea pig 11β-HSD1; guinea pig enzyme
Consider B1, for which the binding result was “binds”.

The values are drawn from patent US20050186659A1 (published 2005).
